Measured values as given in patent publication US20110159598A1 (LES LABORATOIRES SERVIER, published 2011).
No end group written: not given here.

What was measured:
K63 polyubiquitin chains = assay: cell-based or functional assay
[1] = target: human NEMO mutant A323P, FLAG-tagged (human) (UniProt Q9Y6K9); assay: cell-based or functional assay
[2] = target: the molecule itself; assay: gel filtration on Superdex 75, same elution profile as the wild-type CC2-LZ protein
[3] = target: T1, CC2-LZ domain of NEMO (species and construct not stated for this assay) (Mus musculus (Mouse), UniProt O88522 251-337); assay: fluorescence polarisation, N-terminally Fluorescein- or Cy5-labelled peptide, pH 7, ambient temperature, 20 mM Tris-Acetate-MES, 200 mM KCl, 0.5% Tween 20
T1 construct: not shown: N-terminal histidine tag and vector residues from pET28
Procedure: These measurements are carried out at pH 7 and at ambient temperature in a stringent buffer corresponding to 20 mM Tris-Acetate-MES containing 200 mM potassium chloride and 0.5% Tween 20. They are carried out by fluorescence polarisation with the aid of peptides coupled at the N-terminal with the fluorophores Fluorescein or Cy5. For forming the peptide probes of the invention, the peptides can be coupled to any kind of fluorophore.

X-ray crystal structure = target: the molecule itself; assay: X-ray crystal structure

Molecule: human NEMO mutant F312A, FLAG-tagged (from UniProt Q9Y6K9 1-419)
- inhibition of TNFα-dependent activation of the NF-κB pathway (Igκ-luciferase reporter in NEMO-deficient mouse embryo fibroblasts) (K63 polyubiquitin chains): 78%

Molecule: human NEMO mutant A323P, FLAG-tagged (from UniProt Q9Y6K9 1-419)
- inhibition of TNFα-dependent activation of the NF-κB pathway (Igκ-luciferase reporter in NEMO-deficient mouse embryo fibroblasts) [1]: 95%

B1: human CC2-LZ domain of NEMO (Tax CC2-LZ, Met 215 to Glu 362) mutant F312A (other)
chain: MERQAASEEKRKLAQLQVAYHQLFQEYDNHIKSSVVGSERKRGMQLEDLKQQLQQAEEALVAKQEVIDKLKEEAEQHKIVMETVPVLKAQADIYKADAQAERQAREKLAEKKELLQEQLEQLQREYSKLKASCQESARIEDMRKRHVE
notes: also called CC2-LZ F312A; not shown: vector-derived tag of pET-28b (protein purified on Ni-NTA)
- binding result [2]: binds

B2: peptide P8RD (peptide)
peptide: TVAQLKAQFDIHQAEHQAVKHELEKIEEDFEYIEEQLEQLQREFNKLKSG
modifications: also: N-terminal Fluorescein or Cy5
notes: Peptide probe designed from the crystal structure of the CC2-LZ domain
- Kd [3]: 60 nM

B3: peptide PH4 (peptide)
peptide: TVAQLKAQHDIYEAEHQAVEHELEKLEEELEYIKEELEQLQREFNKLSG
modifications: also: N-terminal Fluorescein or Cy5
notes: as for B2
- Kd [3]: 170 nM

B4: CC2-LZ domain of murine NEMO (aa 251-337), N-terminal histidine tag (other)
chain: MQLEDLRQQLQQAEEALVAKQELIDKLKEEAEQHKIVMETVPVLKAQADIYKADFQAERHAREKLVEKKEYLQEQLEQLQREFNKLK
notes: Expressed in E. coli BL21-gold (DE3); Forms a parallel coiled-coil dimer in the crystal; also called CC2-LZ protein; Nemo CC2LZ; not shown: N-terminal histidine tag from plasmid pET28
- binding result (X-ray crystal structure): binds
